Source: patent US10704026B2, “Ex vivo culture, proliferation and expansion of intestinal epithelium” (The Board of Trustees of the Leland Stanford Junior …, priority 2008, dated 2020)
“Also recorded” adds a separate entry of the source.

B1: RSpo1: secreted glycoprotein, Wnt agonist, Genbank Accession NP_001033722 (protein, UniProt Q2MKA7 21-263, looked up)
R-spondin-1: SRGIKGKRQRRISAEGSQACAKGCELCSEVNGCLKCSPKLFILLERNDIRQVGVCLPSCPPGYFDARNPDMNKCIKCKIEHCEACFSHNFCTKCKEGLYLHKGRCYPACPEGSSAANGTMECSSPAQCEMSEWSPWGPCSKKQQLCGFRRGSEERTRRVLHAPVGDHAACSDTKETRRCTVRRVPCPEGQKRRKGGQGRRENANRNLARKESKEAGAGSRRRKGQQQQQQQGTVGPLTSAGPA
B2: Dkk1: Wnt inhibitor; murine Dkk1 bearing N-terminal HA-tag and C-terminal FLAG and 6×His tags (protein, UniProt O54908 32-272, looked up)
Dickkopf-related protein 1: TLNSVLINSNAIKNLPPPLGGAGGQPGSAVSVAPGVLYEGGNKYQTLDNYQPYPCAEDEECGSDEYCSSPSRGAAGVGGVQICLACRKRRKRCMRHAMCCPGNYCKNGICMPSDHSHFPRGEIEESIIENLGNDHNAAAGDGYPRRTTLTSKIYHTKGQEGSVCLRSSDCAAGLCCARHFWSKICKPVLKEGQVCTKHKRKGSHGLEIFQRCYCGEGLACRIQKDHHQASNSSRLHTCQRH
modifications: N-terminal HA tag, C-terminal FLAG and 6xHis tags
notes: murine Dkk1 bearing N-terminal HA-tag and C-terminal FLAG and 6×His tags

Experiments:
intestinal explants = experiment: Growth of intestinal explant (sphere) cultures under Wnt modulation; format: cell-based, mouse; conditions: for explant growth: intestinal explant culture
Text: Small intestine or colon of C57Bl/6J mice is procured under sterile conditions, minced and mixed with type I collagen gel. Subsequently, these explant containing gels are poured onto transwell cell culture inserts with a collagen gel layer. Transwell cell culture inserts are available commercially from a number if resources e.g. Corning, Signaaldrich. These cell culture inserts are placed into secondary outer dishes containing HAMs F-12 with 20% FCS. Proliferation and histology of the explant is depicted in FIG. 4A-4D. Electron micrographs of the intestinal explants in FIG. 5A-5E reveal that the ultrastructure of the intestinal epithelium is preserved.
Before preparing the tissue, an inner container with a gel as bottom layer was made. The procedure described herein used Cellmatrix type I-A (Nitta Gelatin Inc.) e.g. collagen gel. The inner dish has permeable membrane bottom. Millicell culture plate inserts (Millicell-CM, Millipore Co.) or Falcon cell culture inserts (BD Co.) was used as the inner dish. 1 ml of collagen gel solution was poured into a 30-mm diameter inner dish in combination with 60 mm diameter outer dish and 2 ml of culture media. 0.3 ml collagen gel solution was poured into 10-mm diameter inner dish in combination with a 24-well outer dish and 0.5 ml of culture media.
Small or large intestine was removed from mouse (fetus, neonate, juvenile, or adult) aseptically. The removed tissue was immediately immersed in ice-cold PBS or other culture media/tissue preservative solution such as Ham's F12, MEM, etc. The small intestine or colon are opened lengthwise and washed in ice-cold PBS to remove all luminal contents. The washed tissue was minced with scissors to a size less than about 0.1 mm^3. The minced tissue was mixed in ice-cold collagen gel solution and poured onto the prepared inner dish. The inner dish was placed in an outer dish. The gel was solidified at 37° C. for 30 min. After solidification of the gel, culture media was poured into outer dish. Ham's F12 supplemented with 20% fetal calf serum and 50 μg/ml gentamicin was used as culture medium. The culture can be sustained for over a year at 37° C. in a humidified atmosphere of 5% CO2 in air. Medium was changed about every 7 days.
Three-Dimensional Explant Culture System. The mouse small and large intestine (optimally postnatal days 0-2) was opened lengthwise and washed in PBS to remove all luminal contents. A 1 cm segment was minced immediately and extensively on ice with iris scissors. The minced tissues were embedded in a three-dimensional collagen gel using a double-dish culture system. A 1 ml collagen gel solution (Nitta Gelatin Co.) was poured into a 30-mm dish (Millicell-CM, Millipore Co.), the inner dish, with a nitrocellulose bottom to form an acellular layer. Next, a 1 ml collagen gel solution containing a total of 0.1 g minced tissues was placed on the acellular layer in the dish. This inner dish was placed into a 90-mm outer dish containing 10 ml Ham's F12 supplemented with 20% FCS and 50 μg/ml gentamicin. The culture assembly was carried out for 7-365 days at 37 C in a humidified atmosphere of 5% CO2 in air, and the medium was changed every 7 days. Where appropriate, murine RSpo1-Fc, Dkk1 or DBZ (Calbiochem) were included in the outer dish medium at 500 ng/ml, 0.5-50 μg/ml and 10 μM respectively with change of medium every 1-2 days.
This culture system maintains the cultured cells embedded in the collagen gel under an air-liquid interface environment. Before preparing the tissue, an inner dish with collagen gel bottom layer should be made. The following procedure is done using Cellmatrix type I-A (Nitta Gelatin Inc.) as a premixed type I collagen gel, however, other products are able to use as an extracellular matrix, such as matrigel. The inner dish should have permeable and/or pored membrane bottom, such as a cell culture insert. […]

[1] = test system: intestinal epithelial proliferation; conditions: cited from earlier work

Row | Molecule | explant growth (intestinal explants) | explant growth (intestinal explants; listed as R-Spondin1) | intestinal proliferation in vivo [1] | effect on epithelial layer of pre-established spheres (intestinal explants; d28 pre-established small or large intestine spheres, treated additional 5d) | long-term regrowth after transient treatment (intestinal explants; jejunal explants, 50 μg/ml for 7 days, then 35d without Dkk1) | growth when added to culture media at the time of plating (intestinal explants; recombinant protein at plating)
1 | B1 | stimulation; also recorded: markedly stimulated; also recorded: increased growth | promoted | strongly augments intestinal proliferation in vivo; also recorded: strongly induce intestinal proliferation in vivo |  |  | 
2 | B2 | inhibited; also recorded: strong inhibition of explant growth |  | rapid cessation of intestinal epithelial proliferation and crypt loss | rapid degeneration of the epithelial layer | lack of long-term repopulation; also recorded: sufficient to ablate culture growth; also recorded: No growth of intestinal spheres was observed | dose-dependent growth inhibition
